Test results published in PMC3326535.

Experiments:
[1] = molecular target: Human quinolinate phosphoribosyltransferase (hQPRTase) (human) (UniProt Q15274); assay: crystal structure
[2] = molecular target: Human quinolinate phosphoribosyltransferase (hQPRTase) (human) (UniProt Q15274); assay: SEC

- stoichiometry N [1]: 6
- stoichiometry N [2]: 6
Substance: Human quinolinate phosphoribosyltransferase (hQPRTase) (from UniProt Q15274 1-297) (enzyme)
